Laboratory results: patent US20160046725A1 (PIERRE FABRE MEDICAMENT, published 2016)
Substitutions are numbered along the chain they refer to.

T1: human Axl receptor on human tumor cells (human, UniProt P30530 26-894)
T1 sequence: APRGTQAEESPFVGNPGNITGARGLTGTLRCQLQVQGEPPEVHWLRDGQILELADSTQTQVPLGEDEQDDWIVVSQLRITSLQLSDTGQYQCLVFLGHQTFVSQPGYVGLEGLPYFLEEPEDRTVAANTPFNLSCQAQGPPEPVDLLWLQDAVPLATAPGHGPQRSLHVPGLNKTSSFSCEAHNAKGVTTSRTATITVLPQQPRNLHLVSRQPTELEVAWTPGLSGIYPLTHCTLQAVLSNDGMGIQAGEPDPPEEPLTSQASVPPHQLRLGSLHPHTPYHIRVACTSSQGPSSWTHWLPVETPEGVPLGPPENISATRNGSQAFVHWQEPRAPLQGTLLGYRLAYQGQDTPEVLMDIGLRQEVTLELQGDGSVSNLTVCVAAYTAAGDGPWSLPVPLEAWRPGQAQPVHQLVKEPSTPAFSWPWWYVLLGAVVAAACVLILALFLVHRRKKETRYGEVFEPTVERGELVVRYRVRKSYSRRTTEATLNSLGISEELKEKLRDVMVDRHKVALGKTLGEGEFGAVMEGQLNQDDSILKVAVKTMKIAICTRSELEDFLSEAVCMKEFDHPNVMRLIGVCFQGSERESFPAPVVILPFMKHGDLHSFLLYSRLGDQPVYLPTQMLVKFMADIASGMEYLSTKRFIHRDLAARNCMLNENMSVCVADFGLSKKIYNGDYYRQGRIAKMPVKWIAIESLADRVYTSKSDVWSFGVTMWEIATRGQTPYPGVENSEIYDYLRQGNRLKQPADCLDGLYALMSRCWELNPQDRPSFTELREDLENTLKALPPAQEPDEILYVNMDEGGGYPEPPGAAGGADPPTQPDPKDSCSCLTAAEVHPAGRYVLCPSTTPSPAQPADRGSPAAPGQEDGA

T2: recombinant mouse Axl-Fc protein (R and D Systems, cat N° 854-AX/CF) (mouse, UniProt Q00993 19-445)
T2 construct: extracellular domain; Bought construct; also called rmAxl-Fc; murine Axl ECD domain; not shown: Fc portion of the bought fusion (detected by anti-human IgG Fc)
T2 sequence (looked up): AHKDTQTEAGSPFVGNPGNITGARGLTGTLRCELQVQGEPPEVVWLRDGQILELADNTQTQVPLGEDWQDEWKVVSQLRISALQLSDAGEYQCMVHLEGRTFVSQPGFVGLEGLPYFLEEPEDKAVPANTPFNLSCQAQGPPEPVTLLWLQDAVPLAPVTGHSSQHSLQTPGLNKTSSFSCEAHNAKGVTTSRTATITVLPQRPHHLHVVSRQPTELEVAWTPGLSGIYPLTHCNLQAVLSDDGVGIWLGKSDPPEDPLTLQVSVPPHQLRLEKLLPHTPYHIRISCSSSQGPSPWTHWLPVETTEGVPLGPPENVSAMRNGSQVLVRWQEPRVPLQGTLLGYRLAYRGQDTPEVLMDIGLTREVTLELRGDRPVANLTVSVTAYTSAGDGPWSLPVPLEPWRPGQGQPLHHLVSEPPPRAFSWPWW

B1: 110D7 anti-Axl monoclonal antibody (antibody, V domains shown)
VH: EVKLVESGGGLVQPGGSLKLSCATSGFTFSDYYMYWVRQTPEKRLEWVAYISNGGGSTYYPDTVKGRFTMSRDNAKNTLYLQMSRLKSEDTAMYYCARLSFYAMDYWGQGTSVTVSS
VL: DIVMTQSHKFMSTSVGDRVSITCKASQDVTTAVAWYQQKPGQSPKLLIYWASTRHTGVPDRFTGSGSGTDYTLTISSVQAEDLALYYCQQHYRIPFTFGSGTKLEIK
notes: Murine monoclonal antibody purified from a hybridoma; a mIgG1 isotype control (9G4) is used beside it; also called m110D7; monoclonal antibody 110D7 derived from the hybridoma I-3959
B2: 1003A2 anti-Axl monoclonal antibody (antibody, V domains shown)
VH: EVKLVESGGGLVQPGGSLKLSCAASGFTFNSYSMSWVRQTPEKRLEWVAYISNGGGRTYYPDTIKGRFTLSRDNDRNTLYLQMSSLKSEDTAMYYCARGTTESYYALDYWGQGTSVTVSS
VL: B1 VL with V15L, V19I, T30I, T72N, Y92F, R93S, I94T, F96L, S100A, I106L
notes: Murine monoclonal antibody purified from a hybridoma; a mIgG1 isotype control (9G4) is used beside it; also called monoclonal antibody 1003A2 derived from the hybridoma I-4499
B3: 1024G11 anti-Axl monoclonal antibody (antibody, V domains shown)
VH: B2 VH with K19N, N30S, Y50F, I64V, L70F, D75A, K87N, Y95F, L107M
VL: B1 VL with T30I, Y87F, Y92L, R93S, I94T, F96L, S100A, I106L
notes: Murine monoclonal antibody purified from a hybridoma; a mIgG1 isotype control (9G4) is used beside it; also called monoclonal antibody 1024G11 derived from the hybridoma I-4501

Columns and labels:
[1] = target: T1, human Axl receptor on human tumor cells; assay: cell-based or functional assay
[2] = target: T2, recombinant mouse Axl-Fc protein (R and …); assay: ELISA on coated rmAxl-Fc
Procedure: Briefly, the recombinant mouse Axl-Fc (R and D Systems, cat N° 854-AX/CF) proteins were coated overnight at 4° C. to Immulon II 96-well plates and, after a 1 h blocking step with a 0.5% gelatine solution, the 110D7, 1003A2, 1024G11, purified antibodies, respectively, were added for an additional 1 h at 37° C. at starting concentration of 5 μg/ml (3.33 10⁻⁸ M). Then ½ serial dilutions were done over 12 columns. Then plates were washed and a goat anti-mouse (Jackson) specific IgG HRP was added for 1 h at 37° C. Reaction development was performed using the TMB substrate solution. The commercial mouse anti-Axl Mab 154 antibody is also used in parallel. Coating controls are performed in presence of a goat anti-human IgG Fc polyclonal serum coupled with HRP (Jackson, ref 109-035-098) and in presence of a HRP-coupled anti-Histidine antibody (R and D Systems, ref: MAB050H). No specific binding is observed in absence of primary antibody (diluant).

Row | Binder | % remaining Axl [1] [%] | Δ (MFI No Ab 24 h - MFI Ab 24 h) [1] [MFI] | binding result [2]
1 | B1 | 29.8 | 588 | –
2 | B2 | 35 | 505 | no binding
3 | B3 | 45.5 | 478 | no binding
